Patent publication EP1073891B1, “METHOD OF PREDICTING RECEPTOR MODULATING ACTIVITY” (Duke University, priority 1998, dated 1999)

Experiments:
[1] = target: T1, ERβ (Homo sapiens, UniProt Q92731); experiment: Time resolved fluorescence (TRF) binding of europium-streptavidin peptide conjugates in the presence of modulators; set-up: purchased PanVera Corporation, Madison, WI; conditions: for Equiv.: ERβ, positive: % of maximum stimulation by the reference modulator, negative: % of reduction by ICI 182,780
T1 sequence (Q92731 whole entry): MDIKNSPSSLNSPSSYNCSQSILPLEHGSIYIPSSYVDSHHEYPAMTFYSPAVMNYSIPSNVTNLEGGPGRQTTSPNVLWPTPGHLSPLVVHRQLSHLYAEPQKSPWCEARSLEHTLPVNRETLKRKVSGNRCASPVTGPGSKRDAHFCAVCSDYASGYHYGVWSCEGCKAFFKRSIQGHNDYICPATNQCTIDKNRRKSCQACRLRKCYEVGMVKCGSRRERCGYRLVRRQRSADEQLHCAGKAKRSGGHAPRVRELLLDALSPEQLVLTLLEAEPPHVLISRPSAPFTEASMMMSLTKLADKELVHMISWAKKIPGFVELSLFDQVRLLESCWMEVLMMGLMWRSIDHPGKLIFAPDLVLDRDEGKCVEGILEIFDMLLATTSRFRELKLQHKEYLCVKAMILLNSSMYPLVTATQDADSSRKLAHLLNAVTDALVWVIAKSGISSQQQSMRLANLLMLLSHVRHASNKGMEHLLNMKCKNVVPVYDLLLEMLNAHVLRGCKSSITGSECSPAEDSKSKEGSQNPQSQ

[2] = target: T1, ERβ; experiment: Phage ELISA / fingerprint on ER immobilized on biotinylated ERE (Examples 2.3-2.5); format: binding; set-up: purchased PanVera Corporation, Madison, WI; key: semiquantitative scale of 0 to 7+; 1+: semiquantitative scale of 0 to 7+; 2+: semiquantitative scale of 0 to 7+; 3+: semiquantitative scale of 0 to 7+; 4+: semiquantitative scale of 0 to 7+; 5+: semiquantitative scale of 0 to 7+; 6+: semiquantitative scale of 0 to 7+; semiquantitative scale of 0 to 7+; conditions: for binding activity, ERβ and Estradiol: ERβ and Estradiol (1 µM); for binding activity, ERβ and tamoxifen: ERβ and tamoxifen (4-OH tamoxifen, 1 µM)
[3] = target: T2, ERα (Homo sapiens, UniProt P03372); experiment: as above; format: binding; set-up: purchased PanVera Corporation, Madison, WI; key to binding activity, ERα and buffer / binding activity, ERα and estradiol / binding activity, ERα and tamoxifen / binding of peptide, Class Specific Fingerprint on ERα: semiquantitative scale of 0 to 7+; 1+: semiquantitative scale of 0 to 7+; 2+: semiquantitative scale of 0 to 7+; 3+: semiquantitative scale of 0 to 7+; 4+: semiquantitative scale of 0 to 7+; 5+: semiquantitative scale of 0 to 7+; 6+: semiquantitative scale of 0 to 7+; semiquantitative scale of 0 to 7+; conditions: for binding activity, ERα and estradiol: ERα and estradiol (1 µM); for binding activity, ERα and tamoxifen: ERα and tamoxifen (4-OH tamoxifen, 1 µM)
T2 sequence (P03372 1-595): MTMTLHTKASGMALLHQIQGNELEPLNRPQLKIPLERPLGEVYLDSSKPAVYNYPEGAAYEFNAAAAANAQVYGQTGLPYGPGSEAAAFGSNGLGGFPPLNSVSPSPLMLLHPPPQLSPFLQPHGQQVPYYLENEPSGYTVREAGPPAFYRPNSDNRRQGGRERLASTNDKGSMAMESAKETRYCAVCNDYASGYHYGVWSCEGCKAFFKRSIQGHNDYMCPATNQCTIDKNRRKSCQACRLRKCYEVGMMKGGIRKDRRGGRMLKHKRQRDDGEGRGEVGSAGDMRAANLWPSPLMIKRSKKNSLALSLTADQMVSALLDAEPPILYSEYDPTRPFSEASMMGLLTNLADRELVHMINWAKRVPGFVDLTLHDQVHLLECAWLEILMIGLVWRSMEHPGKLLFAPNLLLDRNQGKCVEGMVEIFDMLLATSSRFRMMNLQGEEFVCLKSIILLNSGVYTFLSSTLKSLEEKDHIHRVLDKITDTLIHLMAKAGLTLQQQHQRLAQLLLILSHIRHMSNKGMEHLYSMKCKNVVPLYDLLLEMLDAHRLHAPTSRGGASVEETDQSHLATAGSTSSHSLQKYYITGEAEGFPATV

[4] = target: T1, ERβ; experiment: as above; conditions: probe α/β I (LXXLL motif)
Protocol: Immulon 4 96-well plates were coated with streptavidin in 0.1 sodium bicarbonate.
All of the phage were classified based on their ability to bind to ER a and ER β, in the presence or absence of SERMs. These assays were conducted by phage ELISA. In essence, plastic plates were coated with streptavidin (sigma). Biotinylated-EREs (see above) were conjugated to the solid-phase streptavidin, and ER to the ERE. Bound phage were detected using horseradish peroxidase-labeled anti-(M13 phage) antibodies.
The ER was then incubated with 100µl TBST or TBST containing 1 µM of the appropriate modulator. Phage (40µl), from a 5 hour culture grown in DH5αF' cells, was added directly to the wells and incubated 30 minutes at room temperature. Unbound phage were then removed by 5 washes with TBST. Bound phage were detected using an anti-M13 antibody coupled to horseradish peroxidase (HRP). Assays were developed with 2,2'-azinobis(3-ethylbenzothiazoline)-6 sulfonic acid (ABTS) and hydrogen peroxide for 10 minutes and then stopped by the addition of 1% SDS.
The binding activity is indicated on a semiquantitative scale of 0 to 7+.
The probes were used to fingerprint the interaction of ER α and ER β with a variety of different SERMs by the assay method previously described (using ERE). Next, we evaluated the binding of each of the probes to ERα and ERβ in the presence of a variety of ER ligands that have distinct biological activities. The goal was to determine if each of the ligands would induce a conformational change in the ER that would alter the binding pattern of the probes, thus producing a "fingerprint" for each compound. […] Buffer only (apo-receptor) and progesterone were included as controls.
Phage were amplified from plaques in DHSα F' for 5 hours. Bound phage were detected as described previously. Assays were developed with ABTS (2,2'-azinobis(3-ethylbenzthiazoline-sulfonic acid) for 10 minutes.

[5] = 4-OH Tamoxifen present during binding
[6] = 16a-OH Estrone present during binding
[7] = Clomiphene present during binding
[8] = Estradiol present during binding
[9] = ICI 182,780 present during binding
[10] = Nafoxidine present during binding
[11] = Premarin present during binding
[12] = Progesterone present during binding
[13] = Raloxifene present during binding

CC/C(=C(\c1ccc(O)cc1)c1ccc(/C=C/C(=O)O)cc1)c1ccccc1 [GW 7604]
Equiv. ([1]; peptide probe α/βI): 0%
Equiv. ([1]; peptide probe α/βV): 0%

CC/C(=C(/CC)c1ccc(O)cc1)c1ccc(O)cc1 [DES, diethylstilbestrol]
binding of the β I probe to ER β ([1]; TRF binding assay, in the presence of the compound): reduction

S A A P R T I S H Y L M G G (SAAPRTISHYLMGG) [#48 ER]
binding of peptide, Class Specific Fingerprint on ERβ [2, 5]: 1+
binding of peptide, Class Specific Fingerprint on ERβ [2, 6]: 3+
binding of peptide, Class Specific Fingerprint on ERβ [2, 7]: 1+
binding of peptide, Class Specific Fingerprint on ERβ ([2]; DES present during binding): 3+
binding of peptide, Class Specific Fingerprint on ERβ [2, 8]: 2+
binding of peptide, Class Specific Fingerprint on ERβ ([2]; Estriol present during binding): 6+
binding of peptide, Class Specific Fingerprint on ERβ [2, 9]: 2+
binding of peptide, Class Specific Fingerprint on ERβ [2, 10]: 4+
binding of peptide, Class Specific Fingerprint on ERβ [2, 11]: 4+
binding of peptide, Class Specific Fingerprint on ERβ [2, 12]: 6+
binding of peptide, Class Specific Fingerprint on ERβ [2, 13]: 4+
binding of peptide, Class Specific Fingerprint on ERβ ([2]; buffer present during binding): 7+
binding of peptide, Class Specific Fingerprint on ERα [3, 5]: 1+
binding of peptide, Class Specific Fingerprint on ERα [3, 6]: 2+
binding of peptide, Class Specific Fingerprint on ERα [3, 7]: 1+
binding of peptide, Class Specific Fingerprint on ERα ([3]; DES present during binding): 2+
binding of peptide, Class Specific Fingerprint on ERα [3, 8]: 2+
binding of peptide, Class Specific Fingerprint on ERα ([3]; Estriol present during binding): 4+
binding of peptide, Class Specific Fingerprint on ERα [3, 9]: 1+
binding of peptide, Class Specific Fingerprint on ERα [3, 10]: 1+
binding of peptide, Class Specific Fingerprint on ERα [3, 11]: 2+
binding of peptide, Class Specific Fingerprint on ERα [3, 12]: 6+
binding of peptide, Class Specific Fingerprint on ERα [3, 13]: 1+
binding of peptide, Class Specific Fingerprint on ERα ([3]; buffer present during binding): 7+

SSRTPILFSLLETSR [Peptide 11E-β]
binding activity, ERβ and Estradiol [2]: 6+
binding activity, ERβ and buffer [2]: 5+
binding activity, ERβ and tamoxifen [2]: 4+
binding activity, ERα and buffer [3]: 6+
binding activity, ERα and estradiol [3]: 5+
binding activity, ERα and tamoxifen [3]: 6+

SSDTRSRLYELLSSSYTSR [Peptide 5E-β]
binding activity, ERβ and Estradiol [2]: 7+
binding activity, ERβ and buffer [2]: 5+
binding activity, ERβ and tamoxifen [2]: 2+
binding activity, ERα and buffer [3]: 4+
binding activity, ERα and estradiol [3]: 6+
binding activity, ERα and tamoxifen [3]: 4+

SSRCSSLLCEMLIQTKESR [Peptide 22E-β]
binding activity, ERβ and Estradiol [2]: 7+
binding activity, ERβ and buffer [2]: 5+
binding activity, ERβ and tamoxifen [2]: 2+
binding activity, ERα and buffer [3]: 4+
binding activity, ERα and estradiol [3]: 5+
binding activity, ERα and tamoxifen [3]: 3+

SSARPWWLQFEGSSR [Peptide 7t-β]
binding activity, ERβ and Estradiol [2]: 7+
binding activity, ERβ and buffer [2]: 7+
binding activity, ERβ and tamoxifen [2]: 7+
binding activity, ERα and buffer [3]: 2+
binding activity, ERα and estradiol [3]: 2+
binding activity, ERα and tamoxifen [3]: 2+

SSAGLLEDMLRSRSR [Peptide 21E-β]
binding activity, ERβ and Estradiol [2]: 7+
binding activity, ERβ and buffer [2]: 3+
binding activity, ERβ and tamoxifen [2]: 1+
binding activity, ERα and buffer [3]: 4+
binding activity, ERα and estradiol [3]: 5+
binding activity, ERα and tamoxifen [3]: 3+

C[C@]12CC[C@@H]3c4ccc(O)cc4C[C@@H](CCCCCCCCC[S+]([O-])CCCC(F)(F)C(F)(F)F)[C@H]3[C@@H]1CC[C@@H]2O (stereo partly drawn) [ICI 182,780]
binding of the probe α/β I to ER β in the presence of the ligand [4]: prevented the binding

SYSKEWFEERLNSR [Peptide 4b-β]
binding activity, ERβ and Estradiol [2]: 3+
binding activity, ERβ and buffer [2]: 7+
binding activity, ERβ and tamoxifen [2]: 3+
binding activity, ERα and buffer [3]: 4+
binding activity, ERα and estradiol [3]: 3+
binding activity, ERα and tamoxifen [3]: 3+

SSWPNPTFWERQLSR [Peptide 3b-β]
binding activity, ERβ and Estradiol [2]: 2+
binding activity, ERβ and buffer [2]: 5+
binding activity, ERα and buffer [3]: 5+
binding activity, ERα and estradiol [3]: 3+
binding activity, ERα and tamoxifen [3]: 3+

SSQEEWLLPWRLASR [Peptide 8t-β]
binding activity, ERβ and Estradiol [2]: 5+
binding activity, ERβ and buffer [2]: 7+
binding activity, ERβ and tamoxifen [2]: 5+
binding activity, ERα and buffer [3]: 2+
binding activity, ERα and estradiol [3]: 2+
binding activity, ERα and tamoxifen [3]: 2+

HSWLGPWRLSSIDLGG [Peptide 24b-β]
binding activity, ERβ and Estradiol [2]: 7+
binding activity, ERβ and buffer [2]: 7+
binding activity, ERβ and tamoxifen [2]: 7+
binding activity, ERα and buffer [3]: 2+
binding activity, ERα and estradiol [3]: 2+
binding activity, ERα and tamoxifen [3]: 3+

SSLQAGSWLMHYLRGGDSR [Peptide 23E-β]
binding activity, ERβ and Estradiol [2]: 7+
binding activity, ERβ and buffer [2]: 5+
binding activity, ERβ and tamoxifen [2]: 2+
binding activity, ERα and buffer [3]: 6+
binding activity, ERα and estradiol [3]: 6+
binding activity, ERα and tamoxifen [3]: 5+

SRLHCLLDSSYCSSR [Peptide 1b-β]
binding activity, ERβ and Estradiol [2]: 7+
binding activity, ERβ and buffer [2]: 7+
binding activity, ERβ and tamoxifen [2]: 2+
binding activity, ERα and buffer [3]: 4+
binding activity, ERα and estradiol [3]: 7+
binding activity, ERα and tamoxifen [3]: 3+

SRHGILWDLLQGDSR [Peptide 2E-β]
binding activity, ERβ and Estradiol [2]: 7+
binding activity, ERβ and buffer [2]: 4+
binding activity, ERβ and tamoxifen [2]: 2+
binding activity, ERα and buffer [3]: 6+
binding activity, ERα and estradiol [3]: 7+
binding activity, ERα and tamoxifen [3]: 5+

SSWPGAEWFKEQLSR [Peptide 20b-β]
binding activity, ERβ and Estradiol [2]: 4+
binding activity, ERβ and buffer [2]: 7+
binding activity, ERβ and tamoxifen [2]: 5+
binding activity, ERα and buffer [3]: 4+
binding activity, ERα and estradiol [3]: 3+
binding activity, ERα and tamoxifen [3]: 4+

SSRTLYCHLTSSNPEWCSR [Peptide 27E-β]
binding activity, ERβ and Estradiol [2]: 7+
binding activity, ERβ and buffer [2]: 6+
binding activity, ERβ and tamoxifen [2]: 2+
binding activity, ERα and buffer [3]: 4+
binding activity, ERα and estradiol [3]: 6+
binding activity, ERα and tamoxifen [3]: 3+

SRMFQVCGDEVCLRSR [Peptide 16t-β]
binding activity, ERβ and Estradiol [2]: 5+
binding activity, ERβ and buffer [2]: 7+
binding activity, ERβ and tamoxifen [2]: 7+
binding activity, ERα and buffer [3]: 7+
binding activity, ERα and estradiol [3]: 6+
binding activity, ERα and tamoxifen [3]: 7+

SRSPILWHLLQDGSR [Peptide 10E-β]
binding activity, ERβ and Estradiol [2]: 7+
binding activity, ERβ and buffer [2]: 4+
binding activity, ERβ and tamoxifen [2]: 2+
binding activity, ERα and buffer [3]: 5+
binding activity, ERα and estradiol [3]: 6+
binding activity, ERα and tamoxifen [3]: 4+

SREGLLMRLLIGDSR [Peptide 14E-β]
binding activity, ERβ and Estradiol [2]: 7+
binding activity, ERβ and buffer [2]: 5+
binding activity, ERβ and tamoxifen [2]: 2+
binding activity, ERα and buffer [3]: 5+
binding activity, ERα and estradiol [3]: 7+
binding activity, ERα and tamoxifen [3]: 5+

SSLDLSQFPMTASFLRESR [Peptide 35E-β]
binding activity, ERβ and Estradiol [2]: 6+
binding activity, ERβ and buffer [2]: 2+
binding activity, ERβ and tamoxifen [2]: 1+
binding activity, ERα and buffer [3]: 2+
binding activity, ERα and estradiol [3]: 2+
binding activity, ERα and tamoxifen [3]: 2+

SRWWLDDHELLLYSSR [Peptide 26E-β]
binding activity, ERβ and Estradiol [2]: 7+
binding activity, ERβ and buffer [2]: 5+
binding activity, ERβ and tamoxifen [2]: 2+
binding activity, ERα and buffer [3]: 6+
binding activity, ERα and estradiol [3]: 4+
binding activity, ERα and tamoxifen [3]: 5+

SSGSSAGRLMMLLQDGVSR [Peptide 13E-β]
binding activity, ERβ and Estradiol [2]: 6+
binding activity, ERβ and buffer [2]: 2+
binding activity, ERβ and tamoxifen [2]: 1+
binding activity, ERα and buffer [3]: 5+
binding activity, ERα and estradiol [3]: 4+
binding activity, ERα and tamoxifen [3]: 5+

SSSMMREFFERELSR [Peptide 5b-β]
binding activity, ERβ and Estradiol [2]: 6+
binding activity, ERβ and buffer [2]: 7+
binding activity, ERβ and tamoxifen [2]: 7+
binding activity, ERα and buffer [3]: 6+
binding activity, ERα and estradiol [3]: 6+
binding activity, ERα and tamoxifen [3]: 7+
